In publication PMC9482650, “Quantitative fragmentomics allow affinity mapping of interactomes” (Nature Communications, 2022):

T1: HTRA3, P83110
T1 sequence (P83110 354-453, limits assumed, looked up): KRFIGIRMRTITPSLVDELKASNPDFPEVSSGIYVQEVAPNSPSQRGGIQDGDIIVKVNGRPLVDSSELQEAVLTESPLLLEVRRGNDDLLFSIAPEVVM

T2: DVL3, Q92997
T2 sequence (Q92997 244-331, limits assumed, looked up): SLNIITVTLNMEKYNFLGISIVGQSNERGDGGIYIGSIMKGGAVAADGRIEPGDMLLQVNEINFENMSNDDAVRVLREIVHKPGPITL

T3: GRIP1_5, Q9Y3R0
T3 sequence (Q9Y3R0 568-668, limits assumed, looked up): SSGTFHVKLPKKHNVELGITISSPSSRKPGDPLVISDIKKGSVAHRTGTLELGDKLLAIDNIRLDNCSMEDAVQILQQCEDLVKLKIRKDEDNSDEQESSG

T4: APBA1_2, Q02410
T4 sequence (Q02410 742-832, limits assumed, looked up): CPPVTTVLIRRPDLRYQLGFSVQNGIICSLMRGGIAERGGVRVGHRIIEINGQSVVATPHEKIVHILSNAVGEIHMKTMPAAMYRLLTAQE

T5: LNX2_2, Q8N448
T5 sequence (Q8N448 334-432, limits assumed, looked up): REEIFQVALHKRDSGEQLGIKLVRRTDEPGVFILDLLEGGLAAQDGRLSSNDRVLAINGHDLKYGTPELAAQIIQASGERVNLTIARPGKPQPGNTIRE

T6: APBA1_1, Q02410
T6 sequence (Q02410 651-752, limits assumed, looked up): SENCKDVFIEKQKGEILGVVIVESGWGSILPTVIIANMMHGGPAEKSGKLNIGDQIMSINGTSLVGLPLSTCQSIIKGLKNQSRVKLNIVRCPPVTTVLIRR

T7: DFNB31_2, Q9P202
T7 sequence (Q9P202 274-371, limits assumed, looked up): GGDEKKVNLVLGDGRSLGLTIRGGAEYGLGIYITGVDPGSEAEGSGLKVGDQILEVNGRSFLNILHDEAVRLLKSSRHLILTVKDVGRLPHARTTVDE

T8: DLG3_3, Q92796
T8 sequence (Q92796 374-475, limits assumed, looked up): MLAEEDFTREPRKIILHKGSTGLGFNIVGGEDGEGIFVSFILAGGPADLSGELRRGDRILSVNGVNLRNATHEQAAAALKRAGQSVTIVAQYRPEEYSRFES

T9: FRMPD1, Q5SYB0
T9 sequence (Q5SYB0 52-145, limits assumed, looked up): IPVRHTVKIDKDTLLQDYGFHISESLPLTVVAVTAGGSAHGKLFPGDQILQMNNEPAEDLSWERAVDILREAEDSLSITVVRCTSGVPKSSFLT

B1: TRIP6, Q15654 (peptide)
chain: ELSATVTTDC
B2: SLC22A9, Q8IVM8 (peptide)
chain: EDPRVEVTQF
B3: PLEKHA1, Q9HB21 (peptide)
chain: DDASLPVSDV

Legend:
Test in all cases: holdup assay
Design in all cases: key: below the threshold = too weak to quantify, mostly under pKd 3.1 to 4
Conditions in all cases: plain residues with an end cap or a label only (N-terminal biotin on a linker: ado-ado)
TJP1_3, Q07157 = target: TJP1_3, Q07157
Inadl_9, Q8NI35 = target: Inadl_9, Q8NI35
AHNAK1, Q09666 = target: AHNAK1, Q09666
HTRA3, P83110 = target: T1, HTRA3, P83110
GRIP2_3, Q9C0E4 = target: GRIP2_3, Q9C0E4
Inadl_4, Q8NI35 = target: Inadl_4, Q8NI35
SCRIB_3, Q14160 = target: SCRIB_3, Q14160
FRMPD3, Q5JV73 = target: FRMPD3, Q5JV73
DVL3, Q92997 = target: T2, DVL3, Q92997
GRIP1_5, Q9Y3R0 = target: T3, GRIP1_5, Q9Y3R0
APBA1_2, Q02410 = target: T4, APBA1_2, Q02410
Inadl_10, Q8NI35 = target: Inadl_10, Q8NI35
GOPC, Q9HD26 = target: GOPC, Q9HD26
DLG1_2, Q12959 = target: DLG1_2, Q12959
DLG1_3, Q12959 = target: DLG1_3, Q12959
LNX2_2, Q8N448 = target: T5, LNX2_2, Q8N448
APBA1_1, Q02410 = target: T6, APBA1_1, Q02410
PTPN3, P26045 = target: PTPN3, P26045
PDLIM1, O00151 = target: PDLIM1, O00151
Inadl_8, Q8NI35 = target: Inadl_8, Q8NI35
DFNB31_2, Q9P202 = target: T7, DFNB31_2, Q9P202
DLG3_3, Q92796 = target: T8, DLG3_3, Q92796
NHERF4_1, Q86UT5-2 = target: NHERF4_1, Q86UT5-2
SCRIB_1, Q14160 = target: SCRIB_1, Q14160
NOS1, P29475 = target: NOS1, P29475
PDZRN4_1, Q6ZMN7 = target: PDZRN4_1, Q6ZMN7
FRMPD1, Q5SYB0 = target: T9, FRMPD1, Q5SYB0
Inadl_5, Q8NI35 = target: Inadl_5, Q8NI35
TJP2_1, Q9UDY2 = target: TJP2_1, Q9UDY2
Sequence of TJP2_1, Q9UDY2 (Q9UDY2 24-128): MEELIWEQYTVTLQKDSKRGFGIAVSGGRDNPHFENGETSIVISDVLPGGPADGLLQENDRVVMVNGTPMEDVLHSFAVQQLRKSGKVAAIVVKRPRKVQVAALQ

Sequence of Inadl_5, Q8NI35 (Q8NI35 673-780): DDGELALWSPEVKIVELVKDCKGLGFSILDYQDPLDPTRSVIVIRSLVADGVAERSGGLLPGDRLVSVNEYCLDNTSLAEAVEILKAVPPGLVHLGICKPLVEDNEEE
Sequence of FRMPD3, Q5JV73 (Q5JV73 12-100): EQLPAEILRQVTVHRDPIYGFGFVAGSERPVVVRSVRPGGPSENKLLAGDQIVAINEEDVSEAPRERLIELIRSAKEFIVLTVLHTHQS
Sequence of NHERF4_1, Q86UT5-2 (Q86UT5 other isoform, or with tags, fused parts or gaps): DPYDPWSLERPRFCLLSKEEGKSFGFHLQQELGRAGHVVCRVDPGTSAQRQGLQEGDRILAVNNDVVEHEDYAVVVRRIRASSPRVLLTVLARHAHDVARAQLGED
Sequence of PDLIM1, O00151 (O00151 1-87): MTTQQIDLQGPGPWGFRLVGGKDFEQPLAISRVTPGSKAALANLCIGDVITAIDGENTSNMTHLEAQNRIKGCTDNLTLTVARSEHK
Sequence of PTPN3, P26045 (P26045 505-587): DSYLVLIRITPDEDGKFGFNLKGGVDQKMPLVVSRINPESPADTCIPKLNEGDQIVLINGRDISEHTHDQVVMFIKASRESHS
Sequence of Inadl_9, Q8NI35 (Q8NI35 1530-1615): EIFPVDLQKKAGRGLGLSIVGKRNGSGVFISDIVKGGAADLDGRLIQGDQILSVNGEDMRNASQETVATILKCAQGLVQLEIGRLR
Sequence of GRIP2_3, Q9C0E4 (Q9C0E4 238-339): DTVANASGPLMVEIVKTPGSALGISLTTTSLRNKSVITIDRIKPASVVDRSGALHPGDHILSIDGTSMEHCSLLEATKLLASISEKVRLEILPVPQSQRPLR
Sequence of Inadl_4, Q8NI35 (Q8NI35 547-651): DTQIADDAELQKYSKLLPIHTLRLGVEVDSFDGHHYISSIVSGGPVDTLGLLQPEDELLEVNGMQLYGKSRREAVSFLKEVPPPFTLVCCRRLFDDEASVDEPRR
Sequence of Inadl_8, Q8NI35 (Q8NI35 1425-1530): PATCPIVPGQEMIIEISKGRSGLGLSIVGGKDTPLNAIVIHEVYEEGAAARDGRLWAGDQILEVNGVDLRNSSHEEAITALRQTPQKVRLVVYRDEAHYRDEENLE
Sequence of SCRIB_1, Q14160 (Q14160 718-814): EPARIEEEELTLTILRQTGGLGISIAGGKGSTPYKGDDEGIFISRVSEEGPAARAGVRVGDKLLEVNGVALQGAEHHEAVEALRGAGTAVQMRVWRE
Sequence of TJP1_3, Q07157 (Q07157 416-512): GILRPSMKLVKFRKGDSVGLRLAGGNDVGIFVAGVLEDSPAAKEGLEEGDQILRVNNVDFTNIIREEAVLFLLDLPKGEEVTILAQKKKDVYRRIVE
Sequence of AHNAK1, Q09666 (Q09666 4-100): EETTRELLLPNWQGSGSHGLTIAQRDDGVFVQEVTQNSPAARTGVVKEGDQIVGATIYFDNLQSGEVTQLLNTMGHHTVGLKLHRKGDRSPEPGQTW
Sequence of SCRIB_3, Q14160 (Q14160 999-1103): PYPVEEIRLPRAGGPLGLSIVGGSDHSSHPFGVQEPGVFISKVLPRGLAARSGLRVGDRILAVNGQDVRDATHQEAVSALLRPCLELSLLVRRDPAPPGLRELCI
Sequence of Inadl_10, Q8NI35 (Q8NI35 1673-1763): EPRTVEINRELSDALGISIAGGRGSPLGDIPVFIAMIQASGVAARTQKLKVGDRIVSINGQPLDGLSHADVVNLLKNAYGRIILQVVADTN
Sequence of NOS1, P29475 (P29475 9-101): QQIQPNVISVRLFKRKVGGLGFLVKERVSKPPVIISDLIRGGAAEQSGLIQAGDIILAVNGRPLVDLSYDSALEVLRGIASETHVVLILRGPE
Sequence of PDZRN4_1, Q6ZMN7 (Q6ZMN7 213-318): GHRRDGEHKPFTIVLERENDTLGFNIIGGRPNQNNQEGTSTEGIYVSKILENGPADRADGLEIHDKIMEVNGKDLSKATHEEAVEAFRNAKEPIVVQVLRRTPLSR
Sequence of DLG1_2, Q12959 (Q12959 314-412): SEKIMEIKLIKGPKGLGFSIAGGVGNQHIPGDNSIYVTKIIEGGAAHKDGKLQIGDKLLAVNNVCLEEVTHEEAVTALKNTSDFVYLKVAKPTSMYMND
Sequence of DLG1_3, Q12959 (Q12959 457-571): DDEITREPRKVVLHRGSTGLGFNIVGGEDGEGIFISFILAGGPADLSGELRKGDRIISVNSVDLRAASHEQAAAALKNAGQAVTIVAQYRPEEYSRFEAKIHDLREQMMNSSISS

Binder | pKd (TJP1_3, Q07157) | pKd (Inadl_9, Q8NI35) | pKd (AHNAK1, Q09666) | pKd (HTRA3, P83110) | pKd (GRIP2_3, Q9C0E4) | pKd (Inadl_4, Q8NI35) | pKd (SCRIB_3, Q14160) | pKd (FRMPD3, Q5JV73) | pKd (DVL3, Q92997) | pKd (GRIP1_5, Q9Y3R0) | pKd (APBA1_2, Q02410) | pKd (Inadl_10, Q8NI35) | pKd (GOPC, Q9HD26) | pKd (DLG1_2, Q12959) | pKd (DLG1_3, Q12959) | pKd (LNX2_2, Q8N448) | pKd (APBA1_1, Q02410) | pKd (PTPN3, P26045) | pKd (PDLIM1, O00151) | pKd (Inadl_8, Q8NI35) | also measured
B1 | below the threshold | below the threshold | below the threshold | 4.04 | below the threshold | below the threshold | 4.24 | below the threshold | below the threshold | below the threshold | below the threshold | below the threshold | below the threshold | 3.67 | 4.02 | 3.76 | below the threshold | 4.31 | below the threshold | 3.55 | pKd (DFNB31_2, Q9P202): below the threshold; pKd (DLG3_3, Q92796): below the threshold; pKd (NHERF4_1, Q86UT5-2): 3.69; pKd (SCRIB_1, Q14160): 4.48; pKd (NOS1, P29475): below the threshold; pKd (PDZRN4_1, Q6ZMN7): below the threshold; pKd (FRMPD1, Q5SYB0): below the threshold; pKd (Inadl_5, Q8NI35): below the threshold; pKd (TJP2_1, Q9UDY2): below the threshold
B2 | below the threshold | below the threshold | below the threshold | below the threshold | below the threshold | below the threshold | 3.66 | below the threshold | below the threshold | below the threshold | below the threshold | below the threshold | below the threshold | below the threshold | below the threshold | below the threshold | below the threshold | 4.18 | below the threshold | below the threshold | pKd (DFNB31_2, Q9P202): below the threshold; pKd (DLG3_3, Q92796): below the threshold; pKd (NHERF4_1, Q86UT5-2): 4.3; pKd (SCRIB_1, Q14160): 3.91; pKd (NOS1, P29475): 3.63; pKd (PDZRN4_1, Q6ZMN7): below the threshold; pKd (FRMPD1, Q5SYB0): below the threshold; pKd (Inadl_5, Q8NI35): below the threshold; pKd (TJP2_1, Q9UDY2): below the threshold
B3 | below the threshold | 3.59 | below the threshold | below the threshold | below the threshold | below the threshold | 4.1 | below the threshold | below the threshold | below the threshold | 3.89 | below the threshold | 4.25 | below the threshold | below the threshold | below the threshold | below the threshold | 3.58 | 3.57 | 4.94 | pKd (DFNB31_2, Q9P202): below the threshold; pKd (DLG3_3, Q92796): below the threshold; pKd (NHERF4_1, Q86UT5-2): below the threshold; pKd (SCRIB_1, Q14160): below the threshold; pKd (NOS1, P29475): below the threshold; pKd (PDZRN4_1, Q6ZMN7): below the threshold; pKd (FRMPD1, Q5SYB0): below the threshold; pKd (Inadl_5, Q8NI35): below the threshold; pKd (TJP2_1, Q9UDY2): below the threshold
